These results are taken from patent publication US20260000736A1, “PURIFIED LACTOFERRIN COMPOSITIONS AND METHODS OF USE” (Lactea Therapeutics LLC, priority 2023, published 2026).

The nature of data set [1]: Differential Scanning Calorimetry (DSC) of apolactoferrin and hololactoferrin forms. The data set is classed as physicochemical. As to the method:
Di[…] Calorimetry (DSC) was used to assess the hololactoferrin and apolactoferrin forms through monitoring unfolding temperatures of lactoferrin samples using a nanoDSC (TA Instruments, Lindon, UT) according to standard DSC protocols known to those of skill in the art (e.g., see Hinz et al “M[…] […] OF […] ON […] DI[…] CALORIMETRY”; herein incorporated by reference for all purposes.
API-E2 Lactoferrin (10 mg/mL), produced as described herein, was assessed by DSC. […] The lack of other peaks indicates the lack of contaminants and impurities and can assess API-E2 as ˜100%. […] Additionally, the lack of other peaks also indicated the purity of API-E2 Lactoferrin. […] The API-E2 hololactoferrin peak has a Tm of 88.38+/−0.8 C and a delta H of 632.7+/−7.2 kJ/mol. The hololactoferrin natively accounted for on average 8.74+/−1.39% of the total API-E2 lactoferrin with apolactoferrin accounting for the rest in the samples tested. However, the hololactoferrin percentage can be naturally variable. The API-E2 was calculated by this technique to contain virtually 100% pure lactoferrin.
The assay was also performed with heat-treated API-E2 Lactoferrin. API-E2 Lactoferrin was heated across a range of 50-100° C.
Lab-grade standard lactoferrin and a commercially available supplement-grade lactoferrin were also assessed by DSC under the conditions used to assess API-E2 above.
Background: In DSC, transitions show as peaks or steps in heat flow.

In data set [2] the test system is ECM of primary buccal cells. Description: ECM association by immunofluorescence in primary buccal cells. The data set is classed as cell-based. As to conditions: 100 µg/mL for 1 hr at 37 C. As to the method: Primary buccal cells were next cultured according to a standard protocol (e.g., see Russo et al. Cytotechnology. 2016 October; 68(5): 2105-2114; herein incorporated by reference for all purposes). […] Immunofluorescence imaging was performed as previously described.

B1: Lab-grade standard lactoferrin: commercially available lab-grade standard lactoferrin (protein, UniProt P24627 20-708, looked up)
Lactotransferrin: APRKNVRWCTISQPEWFKCRRWQWRMKKLGAPSITCVRRAFALECIRAIAEKKADAVTLDGGMVFEAGRDPYKLRPVAAEIYGTKESPQTHYYAVAVVKKGSNFQLDQLQGRKSCHTGLGRSAGWIIPMGILRPYLSWTESLEPLQGAVAKFFSASCVPCIDRQAYPNLCQLCKGEGENQCACSSREPYFGYSGAFKCLQDGAGDVAFVKETTVFENLPEKADRDQYELLCLNNSRAPVDAFKECHLAQVPSHAVVARSVDGKEDLIWKLLSKAQEKFGKNKSRSFQLFGSPPGQRDLLFKDSALGFLRIPSKVDSALYLGSRYLTTLKNLRETAEEVKARYTRVVWCAVGPEEQKKCQQWSQQSGQNVTCATASTTDDCIVLVLKGEADALNLDGGYIYTAGKCGLVPVLAENRKSSKHSSLDCVLRPTEGYLAVAVVKKANEGLTWNSLKDKKSCHTAVDRTAGWNIPMGLIVNQTGSCAFDEFFSQSCAPGADPKSRLCALCAGDDQGLDKCVPNSKEKYYGYTGAFRCLAEDVGDVAFVKNDTVWENTNGESTADWAKNLNREDFRLLCLDGTRKPVTEAQSCHLAVAPNHAVVSRSDRAAHVKQVLLHQQALFGKNGKNCPDKFCLFKSETKNLLFNDNTECLAKLGGRPTYEEYLGTEYVTAIANLKKCSTSPLLEACAFLTR
On to B1, for which, in data set [1] (10 mg/mL), the “Tm, Apolactoferrin peak” value amounted to 55 C and the “Tm, Hololactoferrin peak” value amounted to 85 C. In addition, in data set [1] (conditions as for API-E2), the “estimated ratio of the apolactoferrin to hololactoferrin peak” value is listed as “nearly equal”. The “ECM association of Lactoferrin (immunofluorescence imaging)” value in data set [2] is listed as “only limited ECM association”.

B2: heat-treated API-E2 Lactoferrin: API-E2 Lactoferrin heated across a range of 50-100° C. (protein, UniProt P24627 20-708, looked up)
Lactotransferrin: APRKNVRWCTISQPEWFKCRRWQWRMKKLGAPSITCVRRAFALECIRAIAEKKADAVTLDGGMVFEAGRDPYKLRPVAAEIYGTKESPQTHYYAVAVVKKGSNFQLDQLQGRKSCHTGLGRSAGWIIPMGILRPYLSWTESLEPLQGAVAKFFSASCVPCIDRQAYPNLCQLCKGEGENQCACSSREPYFGYSGAFKCLQDGAGDVAFVKETTVFENLPEKADRDQYELLCLNNSRAPVDAFKECHLAQVPSHAVVARSVDGKEDLIWKLLSKAQEKFGKNKSRSFQLFGSPPGQRDLLFKDSALGFLRIPSKVDSALYLGSRYLTTLKNLRETAEEVKARYTRVVWCAVGPEEQKKCQQWSQQSGQNVTCATASTTDDCIVLVLKGEADALNLDGGYIYTAGKCGLVPVLAENRKSSKHSSLDCVLRPTEGYLAVAVVKKANEGLTWNSLKDKKSCHTAVDRTAGWNIPMGLIVNQTGSCAFDEFFSQSCAPGADPKSRLCALCAGDDQGLDKCVPNSKEKYYGYTGAFRCLAEDVGDVAFVKNDTVWENTNGESTADWAKNLNREDFRLLCLDGTRKPVTEAQSCHLAVAPNHAVVSRSDRAAHVKQVLLHQQALFGKNGKNCPDKFCLFKSETKNLLFNDNTECLAKLGGRPTYEEYLGTEYVTAIANLKKCSTSPLLEACAFLTR
modifications: heat-treated
With B2, the “detectable apolactoferrin and hololactoferrin DSC peaks” value in data set [1] (conditions as for API-E2) was “loss in both detectable peaks”.
